Literature values as cited in publication PMC4283463 (Journal of pharmaceutical sciences, 2014).

Q: With human growth hormone [hGH] as the substance, how does the “decrease in stability on carbamidomethylation of all four Cys residues” value read?
A: ~ 37.7 kJ/mol
